The values below are quoted from earlier work in paper PMC4250281.

For the data set, the target named is 14-3-3 zeta (Homo sapiens) (UniProt P63104).
Chain of UniProt P63104 (P63104 whole entry): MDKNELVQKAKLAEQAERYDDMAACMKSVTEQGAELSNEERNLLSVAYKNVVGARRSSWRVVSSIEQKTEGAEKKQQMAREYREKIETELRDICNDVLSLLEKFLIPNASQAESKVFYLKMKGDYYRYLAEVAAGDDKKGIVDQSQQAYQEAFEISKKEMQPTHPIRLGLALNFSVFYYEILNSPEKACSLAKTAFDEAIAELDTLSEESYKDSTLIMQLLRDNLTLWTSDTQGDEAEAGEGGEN

With Raf-1, the Kd was 122 nM.
